Experimental data: article doi:10.1101/2024.01.14.575549v2 (bioRxiv, 2024)

Columns and labels:
[1] = test system: human neuroblastoma SH-SY5Y cells; test: Aβ42 aggregates on SH-SY5Y cells with or without 1,6-hexanediol treatment; assay type: cell-based
[2] = Susceptibility of Aβ42 condensates to 1,6-hexanediol and KCl in vitro; assay type: physicochemical; settings: confocal microscopy
[3] = Diffusion coefficient of free Aβ42 in solution by MDS; assay type: physicochemical; settings: Stokes-Einstein equation from hydrodynamic radius measured by MDS
[4] = assay type: physicochemical

amyloid β1-42 [Aβ42]
area of Aβ42 species at high cell densities ([1]; SH-SY5Y 40 000 cells/well, 2 μM monomer, 48 h incubation): < 50 µm^2 | response of mature Aβ42 condensates to 100% 1,6-hexanediol ([2]; condensates incubated 22 h on DMPC membrane, 100% (6 M) HXD): remained intact | response of Aβ42 condensates to 50% 1,6-hexanediol ([2]; condensates on lipid membrane, 50% HXD): dissolved | diffusion coefficient of Aβ42 in solution [3]: 1.4 ± 0.1 × 10^−10 m^2s^−1 | timescale for the direct solution to amyloid fibril transition ([4]; estimated from Figure 6d (FCS, non-LLPS conditions)): 61 h | ΔG^‡LLPS, free energy barrier for monomeric to liquid transition ([4]; from t = 3 h, c = 2 μM): 8.01 kcal/mol | ΔG^‡LTS, free energy barrier for liquid to solid transition ([4]; from t = 21 h): 8.05 kcal/mol

OCCCCCCO [HXD, 1,6-hexanediol, reference compound]
decrease of Aβ42 aggregate number normalised by total cell area, versus vehicle ([1]; SH-SY5Y cells, 2 μM Aβ42 monomer for 16 h, then 2.5% w/v 1,6-hexanediol): 30%
